Experimental findings from patent US20260191954A1, “COMPOSITIONS AND METHODS FOR NEOADJUVANT TREATMENT IN CANCER” (INNATE PHARMA, priority 2022, published 2026) are described below.

One series concerns OAW42 (CD39+) cells. Briefly: eATP release in OAW42 (CD39+) cells with IPH5201 and docetaxel. The series is classed as cell-based. The following applies: IPH5201 10 or 50 μg/mL + docetaxel dose range, 30 h, FIG. 3B. As for the experimental part: OAW42 (CD39+) cells were incubated with 10 or 50 μg/mL of IPH5201 and treated with a dose range of docetaxel. The measure of eATP release was performed 30 h after docetaxel treatment. eATP was measured in the cell culture supernatant with a luminescent-based assay (CellTiter-Glo®) and expressed in Luminescence Arbitrary Unit (AU). Means+/−SD.

The nature of series [1]: Pharmacokinetics of IPH5201 in phase 1 patients. The class given is in vivo, human. As for the experimental part:
A first-in-human, multicentre, non-randomised, open-label, phase 1 study was conducted in order to assess the safety, efficacy, pharmacokinetics (PK) and pharmacodynamics (PD) of IPH5201±durvalumab (Imfinzi™) in patients with advanced solid tumours. The study consisted of two consecutive dose-escalation parts: • Part 1: Ascending doses of IPH5201 (100, 300, 1000 and 3000 mg) every 3 weeks (Q3W). • Part 2: Ascending doses of IPH5201 (300, 1000 and 3000 mg) and 1500 mg durvalumab Q3W.
PK/PD modelling and simulation were used to guide selection of doses. IPH5201 PK data from 45 patients and PD data of free membrane CD39 (mCD39) occupancy on monocytes from 43 patients were available.
On the left hand panel, curves from bottom to top represent 100 mg, 300 mg, 1000 mg and 3000 mg doses of IPH5201; on the right hand panel curves from bottom to top represent 300 mg, 1000 mg (up to the 21 day time point) and 3000 mg doses of IPH5201. The PK of IPH5201 was non-linear at ≤300 mg and linear at ≥1000 mg. Free soluble CD39 was above the lower limit of quantitation at cycle 1, day 2 or later in 6/40 patients (n=2, 100 mg; n=1, 1000 mg; n=3, 3000 mg).

In the next series the target is T1, CD39 enzyme activity (Homo sapiens, UniProt P49961).
T1 construct: Tumour samples were obtained from patients with pancreatic cancer and assessed for CD39 enzyme activity; from tissue; host or cells: patients' tumour biopsies (tumour, stroma, vasculature), screening vs Day 15
T1 sequence (P49961 1-510): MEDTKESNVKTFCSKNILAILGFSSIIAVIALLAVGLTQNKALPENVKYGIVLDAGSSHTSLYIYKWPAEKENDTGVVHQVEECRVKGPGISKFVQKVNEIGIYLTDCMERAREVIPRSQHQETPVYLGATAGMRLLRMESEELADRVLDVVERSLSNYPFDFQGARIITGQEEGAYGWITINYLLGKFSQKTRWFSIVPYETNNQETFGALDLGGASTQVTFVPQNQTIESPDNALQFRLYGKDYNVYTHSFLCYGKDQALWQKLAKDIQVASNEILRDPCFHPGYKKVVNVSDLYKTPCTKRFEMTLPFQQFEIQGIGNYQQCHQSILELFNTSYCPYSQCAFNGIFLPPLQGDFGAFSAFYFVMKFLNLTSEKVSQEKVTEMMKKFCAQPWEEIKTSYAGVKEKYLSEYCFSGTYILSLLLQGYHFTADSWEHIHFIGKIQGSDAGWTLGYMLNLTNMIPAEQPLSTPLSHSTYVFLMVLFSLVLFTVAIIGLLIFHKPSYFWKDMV
Briefly: Tumoral CD39 enzyme activity in patient biopsies (Wachstein-Meisel assay). The series is classed as in vivo. The settings on record: for Significant overall decrease in CD39 enzymatic activity?: Day 15 vs screening biopsy.

Series [2] deals with T2, membrane-bound CD39 on immune cells (Homo sapiens, UniProt P49961).
T2 construct: To assess free CD39 on monocytes and B cells, blood samples are spiked with an antibody; endogenous in cells; host or cells: monocytes and B cells in patients' blood
T2 sequence (P49961 1-510): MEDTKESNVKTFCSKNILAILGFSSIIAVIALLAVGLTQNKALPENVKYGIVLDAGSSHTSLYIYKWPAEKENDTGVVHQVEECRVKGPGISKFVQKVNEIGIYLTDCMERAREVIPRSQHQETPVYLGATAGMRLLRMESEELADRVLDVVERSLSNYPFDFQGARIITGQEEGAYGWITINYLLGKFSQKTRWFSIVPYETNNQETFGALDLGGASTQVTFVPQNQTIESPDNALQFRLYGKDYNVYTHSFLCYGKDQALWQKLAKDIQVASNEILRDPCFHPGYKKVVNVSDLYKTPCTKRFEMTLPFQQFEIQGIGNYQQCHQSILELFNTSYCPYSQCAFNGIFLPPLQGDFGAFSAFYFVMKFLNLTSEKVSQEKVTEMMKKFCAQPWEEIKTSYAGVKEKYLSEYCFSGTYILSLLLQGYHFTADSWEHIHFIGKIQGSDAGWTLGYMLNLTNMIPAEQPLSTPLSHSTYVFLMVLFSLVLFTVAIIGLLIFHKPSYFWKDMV
In words: Free CD39 on monocytes and B cells in patient blood (flow cytometry). The class given is in vivo. As for the experimental part:
CD39 occupancy by IPH5201 in samples from patients was determined by assessing free soluble CD39 and free membrane bound CD39.
To assess free CD39 on monocytes and B cells, blood samples are spiked with an antibody having the VH and VL of IPH5201 and a mouse Fc domain and labelled with a fluorochrome. A second non-competing anti-CD39 monoclonal antibody labelled with a distinct fluorochrome is used to bind to a site on CD39 distinct from the capture antibody. CD14, CD19 and CD45 are detected by incubation with anti-CD14, CD19 and CD45 monoclonal antibodies each labelled with a distinct fluorochrome. Binding is detected by flow cytometry.
(A flow cytometer gives signals particle by particle.)

[3] abbreviates: serum IPH5201, fixed doses Q3W, mono or with durvalumab, FIG. 12.

B1: IPH5201: humanized anti-CD39 antibody having the respective heavy and light chain amino acid sequences of SEQ ID NOS: 10 and 11 (antibody)
heavy: QVQLVQSGAEVKKPGASVKVSCKASGYTFTDYNMHWVRQAPGQRLEWIGYIVPLNGGSTFNQKFKGRATITVDTSARTAYMELSSLRSEDTAVYYCARGGTRFAYWGQGTLVTVSSASTKGPSVFPLAPSSKSTSGGTAALGCLVKDYFPEPVTVSWNSGALTSGVHTFPAVLQSSGLYSLSSVVTVPSSSLGTQTYICNVNHKPSNTKVDKRVEPKSCDKTHTCPPCPAPEAEGAPSVFLFPPKPKDTLMISRTPEVTCVVVDVSHEDPEVKFNWYVDGVEVHNAKTKPREEQYNSTYRVVSVLTVLHQDWLNGKEYKCKVSNKALPSSIEKTISKAKGQPREPQVYTLPPSREEMTKNQVSLTCLVKGFYPSDIAVEWESNGQPENNYKTTPPVLDSDGSFFLYSKLTVDKSRWQQGNVFSCSVMHEALHNHYTQKSLSLSPGK
light: DIVMTQSPDSLAVSLGERATINCRASESVDNFGVSFMYWFQQKPGQPPKLLIYGASNQGSGVPDRFSGSGSGTDFTLTISSLQAEDVAVYYCQQTKEVPYTFGGGTKVEIKRTVAAPSVFIFPPSDEQLKSGTASVVCLLNNFYPREAKVQWKVDNALQSGNSQESVTEQDSKDSTYSLSSTLTLSKADYEKHKVYACEVTHQGLSSPVTKSFNRGEC
Take B1: in the series with OAW42 (CD39+) cells, the eATP accumulation entry is given as “eATP accumulated significantly”. In series [1] (PK data from 45 patients), the “population PK model best describing IPH5201 PK” value is 2-compartment model with parallel linear and saturatable kinetics. In addition, the “dose range in which PK was linear” value in series [1] (setting [3]) is listed as at least 1000 mg. In series [1] (setting [3]), the “dose range in which PK was non-linear” value was at most 300 mg. Also, in the series with CD39 enzyme activity (3000 mg dose of IPH5201), the “tumoral CD39 enzymatic activity” value was “showed a decrease in enzymatic activity”. Moreover, the “Significant overall decrease in CD39 enzymatic activity?” value is “No” with CD39 enzyme activity (Patient 1, Cohort 1000 mg, NSCLC (squamous)); “Yes” with CD39 enzyme activity (Patient 3, Cohort 1000 mg, Pancreatic); “Yes” in the series with CD39 enzyme activity (Patient 4, Cohort 3000 mg, Pancreatic); “Yes” in the series with CD39 enzyme activity (Patient 5, Cohort 3000 mg, Pancreatic); “Yes” with CD39 enzyme activity (Patient 6, Cohort 3000 mg, Pancreatic); “Yes” with CD39 enzyme activity (Patient 7, Cohort 3000 mg, NSCLC (squamous)). Also, the “patients in whom tumoral CD39 enzymatic activity decreased” value with CD39 enzyme activity (patients with available samples) is reported as 5/8. The “free CD39 at C2D1, monocytes” value in series [2] (100 mg IPH5201 dose, cycle 2 day 1) is given as “full rebound”; in series [2] (300 mg IPH5201 dose, cycle 2 day 1), “partial rebound”. Moreover, the “free CD39 at C2D1, B-cells” value in series [2] (only the 100 mg IPH5201 dose, cycle 2 day 1) is given as “rebound”. Moreover, the “dose at which IPH5201 saturated binding of membrane-bound CD39 on immune cells” value in series [2] (patient samples, FIG. 11B) stood at 3000 mg.
